In publication PMC5762396 (Archives of biochemistry and biophysics, 2017):

Target: G-actin (WT α-skeletal muscle actin from chicken) (chicken, UniProt P68139 1-377)
Assay: atomic force microscopy

peak value of unbinding force [pN]	Binder
64 ± 3.6	Tmod2_(1-346) (domain or fragment) MALPFQKGLEKYKNIDEDELLGKLSEEELKQLENVLDDLDPESATLPAGFRQKDQTQKAATGPFDREHLLMYLEKEALEQKDREDFVPFTGEKKGRVFIPKEKPVETRKEEKVTLDPELEEALASASDTELYDLAAVLGVHNLLNNPKFDEETTNGEGRKGPVRNVVKGEKAKPVFEEPPNPTNVEASLQQMKANDPSLQEVNLNNIKNIPIPTLKEFAKSLETNTHVKKFSLAATRSNDPVALAFAEMLKVNKTLKSLNVESNFITGTGILALVEALRENDTLTEIKIDNQRQQLGTAVEMEIAQMLEENSRILKFGYQFTKQGPRTRVAAAITKNNDLVRKKRV
105 ± 2.2	Tmod2[L73D] (natural protein) MALPFQKGLEKYKNIDEDELLGKLSEEELKQLENVLDDLDPESATLPAGFRQKDQTQKAATGPFDREHLLMYDEKEALEQKDREDFVPFTGEKKGRVFIPKEKPVETRKEEKVTLDPELEEALASASDTELYDLAAVLGVHNLLNNPKFDEETTNGEGRKGPVRNVVKGEKAKPVFEEPPNPTNVEASLQQMKANDPSLQEVNLNNIKNIPIPTLKEFAKSLETNTHVKKFSLAATRSNDPVALAFAEMLKVNKTLKSLNVESNFITGTGILALVEALRENDTLTEIKIDNQRQQLGTAVEMEIAQMLEENSRILKFGYQFTKQGPRTRVAAAITKNNDLVRKKRVEGDRR
